The target of one test is T1, DHT07 chain C.
T1 chain: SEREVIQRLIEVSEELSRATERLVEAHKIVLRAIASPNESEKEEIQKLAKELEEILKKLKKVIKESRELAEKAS
Nature of the test: co-expression, IMAC, SEC, native MS; chains of one ABC heterotrimer. The source says: (§1) Genes encoding 85 heterotrimers in a tricistronic expression vector were obtained, and the proteins were expressed in E. coli and purified via IMAC with only one chain having the 6×His-tag. Nine of the designs (FIG. 3a) had monodisperse SEC peaks (FIG. 3b), were almost exclusively ABC by nMS, and had good SAXS fits to the design models (Table 7). […] Eight of the designs are parallel heterotrimers, while DHTO9 is an antiparallel heterotrimer. […] For 3 other designs, only the ABC heterotrimer was determined to form by nMS (when the respective SEC fraction was analyzed) but the heterotrimer SEC peak was preceded by soluble aggregate that would make building with these constructs difficult downstream. We explored the dependence of cooperativity on connectivity between the three chains by changing the positions of the loops across different helices in DHT03, while keeping the rest of the interface intact. […] The ability to sustain alternate loop closures increases the number of heteromeric building blocks available for future nanostructure assembly applications and may enable rigid fusion of functional domains to the different termini available.
(§2) Samples were analyzed by online buffer exchange native mass spectrometry (nMS) to evaluate sample purity and accurately determine oligomeric states⁴². Multiple instruments were used as the analyses were carried out over the duration of the protein design process. The mass spectrometers used for detection were a Q Exactive™ UHMR modified with a surface-induced dissociation device and an Exactive™ Plus EMR modified with a selection quadrupole and a surface-induced dissociation device (Thermo Fisher Scientific)⁴³. The liquid chromatography systems used for the buffer exchange include a Vanquish™ Duo UHPLC and a Dionex™ Ultimate 3000 HPLC (Thermo Fisher Scientific). A heated electrospray ionization source (HESI-II, Thermo Fisher Scientific) with a spray voltage of ˜4 kV was used for ionization.

Test [1] concerns the target T2, DHT03 chain C (SEQ ID NO: 65).
T2 chain: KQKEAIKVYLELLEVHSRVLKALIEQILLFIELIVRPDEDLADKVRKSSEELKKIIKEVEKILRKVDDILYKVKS
As to the kind of experiment: co-expression, SEC, native MS, SAXS; chains of one ABC heterotrimer.

Test [2] deals with T3, DHT03_variant_ABC-2 chain C.
T3 chain: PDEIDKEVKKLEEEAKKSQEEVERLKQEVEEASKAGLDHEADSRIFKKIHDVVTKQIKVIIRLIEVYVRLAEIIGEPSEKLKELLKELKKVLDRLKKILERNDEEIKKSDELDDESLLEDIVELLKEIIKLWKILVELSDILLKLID
As to the kind of experiment: native MS; loop-connectivity variant of DHT03, chains of one ABC heterotrimer.

A further test addresses T4, DHT06 chain C.
T4 chain: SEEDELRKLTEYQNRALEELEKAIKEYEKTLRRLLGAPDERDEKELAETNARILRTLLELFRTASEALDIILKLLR
Nature of the test: co-expression, IMAC, SEC, native MS; chains of one ABC heterotrimer.
From the text: as §1, §2

For another test, the target named is T5, DHT02 chain C.
T5 chain: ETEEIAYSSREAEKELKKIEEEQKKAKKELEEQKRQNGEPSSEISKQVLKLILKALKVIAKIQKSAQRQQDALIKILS
The description is as above.
From the text: as §1, §2

The target in another test is T6, DHT01-4arm-01 chain C.
T6 construct: also called DHT01-4arm-02 chain C; C2-DHT01-01 chain B
T6 chain: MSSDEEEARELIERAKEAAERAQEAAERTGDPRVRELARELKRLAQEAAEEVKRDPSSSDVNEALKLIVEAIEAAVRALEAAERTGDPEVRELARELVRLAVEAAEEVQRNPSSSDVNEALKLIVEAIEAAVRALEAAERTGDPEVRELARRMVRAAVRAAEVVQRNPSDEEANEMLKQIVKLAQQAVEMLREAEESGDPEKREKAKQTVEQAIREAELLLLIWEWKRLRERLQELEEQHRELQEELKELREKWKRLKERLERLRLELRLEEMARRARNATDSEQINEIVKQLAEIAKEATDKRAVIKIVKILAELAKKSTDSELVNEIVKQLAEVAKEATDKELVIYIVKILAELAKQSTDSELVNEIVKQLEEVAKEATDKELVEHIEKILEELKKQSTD
Nature of the test: co-expression, pull-downs, SEC, native MS, SAXS; chains of one ABC heterotrimer.

For the next test, the target named is T7, DHT09 chain C.
T7 chain: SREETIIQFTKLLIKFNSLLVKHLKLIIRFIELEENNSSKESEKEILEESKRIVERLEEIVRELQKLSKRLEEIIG
Nature of the test: co-expression, IMAC, SEC, native MS; chains of one ABC heterotrimer.
From the text: as §1, §2

For another test, the target named is T8, DHT10 chain C.
T8 chain: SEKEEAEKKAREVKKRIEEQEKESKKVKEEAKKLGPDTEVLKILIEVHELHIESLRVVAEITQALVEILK
Described as above.
From the text: as §1, §2

The target in another test is T9, DHT01 chain C.
T9 chain: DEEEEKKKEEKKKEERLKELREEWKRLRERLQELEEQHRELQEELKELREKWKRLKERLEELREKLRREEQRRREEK
Nature of the test: co-expression, IMAC and Strep-Tactin pull-down, SEC, native MS; chains of one ABC heterotrimer.
From the text: We obtained genes encoding 20 coiled coil designed heterotrimers (DHTs) in a tricistronic E. coli expression vector with one chain having a 6×His-tag and a second chain having Strep-tag II, expressed the proteins, and purified by immobilized metal affinity chromatography (IMAC) and Strep-Tactin pull-down. All designs were soluble and for 6 designs, all three components were observed by liquid chromatography-mass spectrometry (LC-MS) after both pull-down approaches. Of these, 5 eluted as monodisperse peaks by SEC, but only 1 design (DHT01) was an exclusive ABC heterotrimer by native mass spectrometry (nMS) and had good agreement with the design model via small angle X-ray scattering (SAXS) (FIG. 2d, Table 7).
as §2, with “ionization. Protein samples stored in Tris buffer were injected (0.1-2 ug) onto the LC system and exchanged at a flow rate of 100-200 uL*min⁻¹ into 200 mM ammonium acetate (mobile phase) prior to ionization. Buffer exchange columns used include self-packed columns with P6 polyacrylamide gel (Bio-Rad Laboratories) and prototype buffer exchange columns provided by Thermo Fisher Scientific (Sunnyvale, CA). Instrument parameters were optimized to allow for ion transmission while minimizing unintentional ion activation. […]” for “ionization.”

A further test deals with T10, DHT04 chain C.
T10 chain: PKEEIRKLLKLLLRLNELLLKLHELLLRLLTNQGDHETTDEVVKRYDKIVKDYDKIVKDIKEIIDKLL
As to the kind of experiment: co-expression, IMAC, SEC, native MS; chains of one ABC heterotrimer.
From the text: as §1, §2

For another test, the target named is T11, DHT08 chain C.
T11 chain: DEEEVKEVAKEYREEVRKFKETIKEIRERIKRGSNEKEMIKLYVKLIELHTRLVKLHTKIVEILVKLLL
The test is described as above.
From the text: as §1, §2

B1: DHT07 chain B (designed binder)
chain: DREEKLERETEKLEKKIRESQRRMEELRKQIETDPDEKELLEILIRSLRLLEEQLEALRKLNHAAQQLLG
Consider B1, for which the binding result with DHT07 chain C is “binds”.

B2: DHT03_2arm_A21/Bt18/C chain B (designed binder)
chain: TEEKIAKEISRIAEESKKRIEELARKADNKTTETEVDKAIEKIAKLAREAIKRIEDLAKNLASEEFMARAISAIAELAKKAIEAIYRLADNHTTDTFMAKAIEAIAELAKEAIKAIADLAKNHTTEEFMARAISAIAELAKKAIEAIYRLADNHTTDTFMAKAIEAIAELAKEAIKAIADLAKNHTTEEFMAKAISAIMELAVKAILAIARLASNHTSQTYREKAREAVEKIARTAEKAIEDLAKNITTEEYKERAKKARAIVRVMAEVAKLLIEAVESQEEVERLKQEVEKASKAGLDHEGDSRIFKKIHDVVTKQIKVIIRLIAVYAELVAIIG
Consider B2, for which the binding result in test [1] is recorded as “binds”.

In the case of QKEAIKVYLELLEVHSRVLKALIEQIKLFIELIKRK (designed binder) [DHT03_variant_ABC-2 chain B], the binding result in test [2] is given as “binds”.

B3: DHT06 chain B (designed binder)
chain: SEEDELEKAIREQKKALERLKEAIERYEETLKRGKNEKELAKTNAEILKTLLELFKSQLELAEIILKLLR
For B3, the binding result with DHT06 chain C is “binds”.

B4: DHT02 chain B (designed binder)
chain: PQLDKFRDESRYLDKASKEVEDEIKKIEKIIRDADEKSLPEEALQDVVKSVVKVYLKSVKETIKSIELVIELIKVIM
As for B4, the binding result with DHT02 chain C was “binds”.

B5: DHT01-4arm-01 chain B (designed binder)
chain: SEQERREKAKEEVRELNEEFKEAEKRFRKLQEETKKALEEVEELNQRFQEALTEVAAKKLALEISRVIKTLKESGSSYEEIAEIVARIVAEIVEALKRSGASEKDIATIVAAIISAVIQTLKESGSSYEVIAEIVARIVAEIVEALKRSGTSEDEIAEIVARVISEVIRTLKESGSSYEVIKEIVQRIVEEIVEALKRSGTSEDEINEIVRRVKSEVERTLKESGSS
notes: Strep-tag II was added to the N-terminus of chain B of DHT01 arms
Take B5: the binding result in the test with DHT01-4arm-01 chain C is on record as “binds”.

B6: DHT09 chain B (designed binder)
chain: SKEEILKLHLEVAEIHIETVKIYLEVIKILIRLIEKNSSKEDERELEEELKELERELEELQKKLEEIRKELQEIEG
Turning to B6, in the test with DHT09 chain C, the binding result was “binds”.

B7: DHT10 chain B (designed binder)
chain: SELEEEIKRIRKEIEESRRRIEELRKKAQKAREGSSEKEFLQIYIELQKVLIEQIKIYIELLQIIFELQS
As for B7, in the test with DHT10 chain C, the binding result is “binds”.

B8: DHT01 chain B (designed binder)
chain: SEQERREKAKEEVRELNEEFKEAEKRFRKLQEETKKALEEVEELNQRFEEALEEVERIKRRQK
For the molecule B8, the binding result with DHT01 chain C is “binds”.

B9: DHT04 chain B (designed binder)
chain: DEELIIYIIELLLKDDELLLKSLEIILRIIQLQLTSKDKDDGTDKIKKLVDESKKILDDSERLAEELRKIEEKLK
Consider B9, for which the binding result in the test with DHT04 chain C is listed as “binds”.

B10: DHT08 chain B (designed binder)
chain: DKEEKIKEILRRVQELRREHEELEERLKELKKELEKSPSQEELKKFIKLAQELIKLTLELIELSLRLIELLLG
Regarding B10, the binding result with DHT08 chain C is on record as “binds”.

(Values after patent US20240029824A1 (University of Washington, published 2024).)
